From patent US20040048327A1
Numbered stars: 1 amine (or outer) side, 2 acyl side, 3 side chain; on linkers, the order of the positions; unused ones are H or OH. Square brackets hold non-standard residues; d marks the D form. * marks the point of attachment. AAsp = aza-Asp, O=C(N(CC(=O)[*:3])N[*:1])[*:2]; Cbz = O=C(OCc1ccccc1)*; NHBn = c1ccc(CN*)cc1

T1: caspase-3 (UniProt P42574)
T1 sequence (looked up): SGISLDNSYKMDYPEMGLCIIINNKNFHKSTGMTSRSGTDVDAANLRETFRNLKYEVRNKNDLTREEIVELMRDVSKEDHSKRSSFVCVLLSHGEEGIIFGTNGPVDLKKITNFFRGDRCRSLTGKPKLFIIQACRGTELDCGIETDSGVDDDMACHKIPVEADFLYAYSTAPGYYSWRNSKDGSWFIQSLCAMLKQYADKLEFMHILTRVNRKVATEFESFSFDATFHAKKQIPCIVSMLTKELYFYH

T2: caspase-6 (UniProt P55212)
T2 sequence (looked up): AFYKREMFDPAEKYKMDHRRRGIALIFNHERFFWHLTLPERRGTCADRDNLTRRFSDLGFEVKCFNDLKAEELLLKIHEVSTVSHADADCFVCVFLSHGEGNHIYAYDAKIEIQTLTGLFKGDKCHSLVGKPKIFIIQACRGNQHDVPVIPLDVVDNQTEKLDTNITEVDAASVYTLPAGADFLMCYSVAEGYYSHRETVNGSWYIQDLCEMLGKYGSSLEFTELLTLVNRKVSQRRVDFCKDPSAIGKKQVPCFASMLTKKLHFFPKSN


Columns and labels:
Assay in all cases: cell-based or functional assay
caspase-3 = molecular target: T1, caspase-3
[1] = molecular target: autolytically stable caspase-1 variant (D381 E) (UniProt P29466)
caspase-6 = molecular target: T2, caspase-6

Chain of autolytically stable caspase-1 variant (D381 E) (P29466 other isoform, or with tags, fused parts or gaps mutant limits assumed): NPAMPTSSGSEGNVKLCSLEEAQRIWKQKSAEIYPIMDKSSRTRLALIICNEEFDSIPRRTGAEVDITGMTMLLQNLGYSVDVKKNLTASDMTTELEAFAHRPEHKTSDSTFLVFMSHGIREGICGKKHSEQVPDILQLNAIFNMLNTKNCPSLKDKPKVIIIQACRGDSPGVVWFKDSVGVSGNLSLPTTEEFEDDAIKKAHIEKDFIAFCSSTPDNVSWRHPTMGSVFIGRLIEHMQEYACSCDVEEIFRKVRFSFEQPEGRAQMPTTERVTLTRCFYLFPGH

Row | k2 (caspase-3) [M⁻¹ s⁻¹] | k2 [1] [M⁻¹ s⁻¹] | k2 (caspase-6) [M⁻¹ s⁻¹] | Binder
1 | 2550 | – | – | Cbz-LET[AAsp]-{(S,S)‑EP‑CONHCH2CH2Ph} [Cbz-Leu-Glu-Thr-AAsp-(S,S)-EP-CONHCH2CH2Ph]
2 | 3520 | 43500 | – | Cbz-LET[AAsp]-{(S,S)‑EP‑COOCH2Ph} [Cbz-Leu-Glu-Thr-AAsp-(S,S)-EP-COOCH2Ph]
3 | 3210 | 25700 | – | Cbz-LET[AAsp]-{(2S,3S)‑EP‑COOEt} [Cbz-Leu-Glu-Thr-AAsp-(2S, 3S)-EP-COOEt]
4 | 1280 | – | – | Cbz-LET[AAsp]-{(S,S)‑EP‑CO-Ala-NHBn} [Cbz-Leu-Glu-Thr-AAsp-(S,S)-EP-CO-Ala-NHCH2Ph]
5 | 3250 | 19600 | – | Cbz-LET[AAsp]-{(2R,3R)‑EP‑COOEt} [Cbz-Leu-Glu-Thr-AAsp-(2R, 3R)-EP-COOEt]
6 | 2640 | – | 9680 | Cbz-LET[AAsp]-{(2S,3S)‑EP‑CON(CH3)CH2Ph} [Cbz-Leu-Glu-Thr-AAsp-(2S,3S)-EP-CON(CH3)CH2Ph]
7 | 2750 | – | 13800 | Cbz-LET[AAsp]-{(2S,3S)‑EP‑CON(CH2Ph)2} [Cbz-Leu-Glu-Thr-AAsp-(2S,3S)-EP-CON(CH2Ph)2]
